Laboratory results from patent US20180066017A1, “CLASS I MHC PHOSPHOPEPTIDES FOR CANCER IMMUNOTHERAPY AND DIAGNOSIS” (Agenus Inc., priority 2010, published 2018).
Square brackets hold non-standard residues; d marks the D form. Ends that are not written are not given here. pS = N[C@@H](COP(=O)(O)O)C(=O)O

Tests used:
[1] = test system: cancer cell lines COV413.AAD.A4, DM331.AAD.A4, SLM2.AAD.A1, MCF7.AAD.A2, MDAMB231.AAD; JY EBV-BLCL control; assay: Recognition of naturally processed and presented phosphopeptides on cancer cells by phosphopeptide-specific CTL (murine IFNγ release); format: cell-based; settings: FIG. 1A/1B; for recognition of the phosphopeptide on control cell line by phosphopeptide-specific CTL (murine IFNγ): JY EBV-BLCL control cell line; for recognition of the phosphopeptide on cancer cell lines by phosphopeptide-specific CTL (murine IFNγ): ovarian carcinoma, melanoma and breast carcinoma cell lines
Protocol: FIGS. 1A and 1B are a graphic illustration of the recognition of naturally processed and presented phosphorylated peptides on cancer cells by the phosphopeptide-specific CTL. Phosphopeptide-specific CTL were incubated with the following cancer cell lines or EBV-transformed B lymphoblastoid cell lines (BLCL): COV413.AAD.A4 ovarian carcinoma, DM331.AAD.A4 and SLM2.AAD.A1 melanomas, MCF7.AAD.A2 and MDAMB231.AAD breast carcinomas, and JY EBV-BLCL. Supernatants were harvested and evaluated for the presence of murine IFNγ (produced by murine CTL lines). […] The designation “pS” denotes a phosphoserine residue. The ordinate indicates murine IFNγ in pg/ml. The abscissa indicates each cell line.

HLA A*0201 = HLA A*0201 (Homo sapiens, UniProt P04439, D140Y/D185E/D98H/E176V/E277Q/G131W/G231S/I119V/I121R/I166T/I218V/L300P/L318F/N151K/N90K/P208A/P217A/Q86G/Q94H/R138H/R169H/T345S); assay: Binding of IRS-2 phosphopeptides to HLA A*0201
Source text: (§1) We have also shown that we can clone the T-cell receptor on the murine cytotoxic T-cells and then inject the corresponding DNA into normal human T-cells. This process turns them into cytotoxic T-cells that now recognize cancer cells that express the same class I phosphopeptides derived from IRS-2 and β-catenin. […] These experiments also open the door for using class I phosphopeptides in adopted T-cell therapy of cancer. This approach has shown dramatic success in the treatment of advanced stage metastatic melanoma. […] RVApSPTSGV (SEQ ID NO: 1289) binds to HLA A*0201 and both RVApSPTSGVK (SEQ ID NO: 53) and RVApSPTSGVKR (SEQ ID NO: 54) bind to HLA A*0301.

HLA A*0301 = HLA A*0301 (Homo sapiens, UniProt P04439); assay: Binding / presentation of IRS-2 phosphopeptides by HLA A*0301
Source text: as §1

Row | binding to HLA A*0201 (HLA A*0201) | binding to HLA A*0301 (HLA A*0301) | Substance | recognition of the phosphopeptide on control cell line by phosphopeptide-specific CTL (murine IFNγ) [1] | recognition of the phosphopeptide on cancer cell lines by phosphopeptide-specific CTL (murine IFNγ) [1] | presentation by the A*0301 molecule (HLA A*0301)
1 |  |  | GLLGpSPVRA (GLLG[pS]PVRA) [phosphopeptide with phosphoserine residue recognized by CTL lines 6850 and 6960] | not the control cell line | recognize the phosphopeptide on all the cancer cell lines | 
2 | Neither of the A*0301 peptides bind | bind | RVApSPTSGVK (RVA[pS]PTSGVK) |  |  | 
3 | Neither of the A*0301 peptides bind | bind | RVApSPTSGVKR (RVA[pS]PTSGVKR) |  |  | 

Row | Substance | binding to HLA A*0201 (HLA A*0201) | binding to HLA A*0301 (HLA A*0301) | recognition of the phosphopeptide on control cell line by phosphopeptide-specific CTL (murine IFNγ) [1] | recognition of the phosphopeptide on cancer cell lines by phosphopeptide-specific CTL (murine IFNγ) [1] | presentation by the A*0301 molecule (HLA A*0301)
4 | RVApSPTSGV (RVA[pS]PTSGV) | binds |  | not the control cell line | recognize the phosphopeptide on all the cancer cell lines | cannot be presented
